Positions count from the first letter of the chain named. In names and notes the source's numbering stands.
Key:
[1] = biological target: T1, cynomolgus PD-1 Fc fusion (cynomolgus monkey, UniProt B0LAJ3 25-170); test: ELISA on plate bound cynomolgus PD-1 Fc fusion
T1 construct: also called Cyno PD-1 (ELISA)

[2] = biological target: T2, human PD-1 expressed on cells (human, UniProt Q15116 25-288); test: flow cytometry on PD-1 expressing Jurkat cells
T2 construct: also called cell surface PD-1; PD-1 in Jurkat cells

[3] = biological target: T2, human PD-1 expressed on cells; test: flow cytometry on activated human CD4+ T cells
Experimental: Cells were analyzed using Becton Dickinson FACSCanto flow cytometer. Data was analyzed using BD FACSDiva software (version 8.0.1).

[4] = biological target: T2, human PD-1 expressed on cells; test: flow cytometry on PD-1 expressing Jurkat cells; samples incubated 30 days at -80, 5, 25 or 40°C
Experimental: (§1) PD-1 expressing Jurkat cells were harvested from flasks and resuspended to 2×10⁶ cells/mL in PBS containing 1% BSA. 100 μL of cells were added to a round bottom 96 well plate containing 100 μL of titrated test antibody or isotype control. Cells were incubated with antibodies at room temperature for 25 minutes and then washed twice with PBS containing 1% BSA. The cell pellet was resuspended in 100 μL of a 1:250 diluted secondary antibody goat anti-human Fab PE. Following 25 minutes incubation at RT, cells were washed twice with PBS containing 1% BSA and resuspended in 200 μL of 1% BSA. Cells were analyzed using Becton Dickinson FACSCanto flow cytometer. Data was analyzed using BD FACSDiva software (version 8.0.1).

[5] = biological target: T3, Recombinant extracellular domain of human PD-1 (residues 1-167) (human, UniProt Q15116 25-167); test: SPR, Biacore T200, antibody captured by anti-human Fc, PD-1 ECD as analyte
T3 construct: Bought from a commercial source; also called recombinant soluble PD-1 ECD; PD-1 ECD
From the text: Unreacted moieties on the biosensor surface were blocked with ethanolamine.

human PD-1 Fc fusion = biological target: T4, human PD-1 Fc fusion (human, UniProt Q15116 25-170); test: ELISA on plate bound human PD-1 Fc fusion
T4 construct: also called Hu PD-1 (ELISA); not shown: Fc part of the fusion

[6] = biological target: T2, human PD-1 expressed on cells; test: cell-based or functional assay
[7] = biological target: T2, human PD-1 expressed on cells; test: flow cytometry on human PD-1 transfected Jurkat cells
Experimental: as §1
(§2) The antibody variants were screened for binding to human PD-1 transfected Jurkat cells and EC₅₀ values were determined (FIG. 3B).

[8] = biological target: T2, human PD-1 expressed on cells; test: flow cytometry on PD-1 expressing Jurkat cells; samples stored 30 days at the given temperature or oxidised with 1% hydrogen peroxide or 1% tert-butyl hydroperoxide
Experimental: as §1, §2

T2 sequence (Q15116 25-288 limits assumed): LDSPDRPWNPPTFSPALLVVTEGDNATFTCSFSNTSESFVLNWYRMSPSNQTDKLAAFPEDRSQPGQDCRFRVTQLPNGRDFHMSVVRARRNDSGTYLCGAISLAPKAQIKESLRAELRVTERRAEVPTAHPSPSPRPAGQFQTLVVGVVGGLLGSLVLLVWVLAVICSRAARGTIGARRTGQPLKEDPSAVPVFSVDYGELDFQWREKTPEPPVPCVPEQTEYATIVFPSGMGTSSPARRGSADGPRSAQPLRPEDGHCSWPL
T1 sequence (B0LAJ3 entry or part of it limits assumed): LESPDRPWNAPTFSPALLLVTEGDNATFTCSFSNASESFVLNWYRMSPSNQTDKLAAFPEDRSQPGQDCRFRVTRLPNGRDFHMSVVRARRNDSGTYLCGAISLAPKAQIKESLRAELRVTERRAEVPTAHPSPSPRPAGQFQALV
T4 sequence (Q15116 25-170 limits assumed): as the sequence (B0LAJ3 entry or part of it limits assumed) above, with E2D, A10P, L19V, A35T, R75Q, A144T counted along it
T3 sequence (Q15116 25-167): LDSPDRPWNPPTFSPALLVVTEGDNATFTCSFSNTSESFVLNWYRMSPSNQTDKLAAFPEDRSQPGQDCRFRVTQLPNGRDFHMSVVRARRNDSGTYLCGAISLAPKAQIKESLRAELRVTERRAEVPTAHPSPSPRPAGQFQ

## Nivolumab (antibody)
[1]
  EC50: 0.07 nM

B1: Humanized 12A11.2b with M99L in CDR-H3 (antibody, V domains shown)
VH: EIQLVQSGAEVKKPGSSVKVSCKASGYTFTHYGMNWVRQAPGQGLEWVGWVNTYTGEPTYADDFKGRLTFTLDTSTSTAYMELSSLRSEDTAVYYCTREGEGLGFGDWGQGTTVTVSS
VL: DVVMTQSPLSLPVTPGEPASISCRSSQSIVHSHGDTYLEWYLQKPGQSPQLLIYKVSNRFSGVPDRFSGSGSGTDFTLKISRVEAEDVGVYYCFQGSHIPVTFGQGTKLEIK
notes: It was detected with anti-human Fab and captured with anti-human IgG Fc; also called Hu12A11.2b4; humanized antibody 12A11.2b M99L
[1]
  EC50: 0.102 nM
[2]
  EC50: 0.045 nM
[3]
  EC50: 0.18 nM
[4]
  EC50 (read off the curve): ~0.01 µg/mL
[5]
  Kd: 2.1 nM
Human PD-1 Fc fusion
  EC50: 0.197 nM
[6]
  Jurkat NFAT EC50: 4.5 µg/mL

B2: Humanized 12A11.2b with M99I in CDR-H3 (antibody, V domains shown)
VH: B1 VH with L103I
VL: B1 VL
notes: also called Hu12A11.2b2; M99I variant
[7]
  binding result: binds

B3: Humanized 12A11.2b with M99V in CDR-H3 (antibody, V domains shown)
VH: B1 VH with L103V
VL: B1 VL
notes: also called Hu12A11.2b3; M99V variant
[7]
  binding result: binds

B4: Humanized 12A11.2b with mouse CDRs (antibody, V domains shown)
VH: B1 VH with L103M
VL: B1 VL
notes: also called Hu12A11.2b1; M99 parent antibody
[8]
  binding result: binds
